Reference: publication PMC7575552

Target: Hsp70 (385–641) (UniProt P0DMV8)
Assay: ITC; TA Instruments NanoITC, 25 °C, stir speed 600 rpm; 350 µM WT or S20E CHIP titrated into 50 µM Hsp70 (385–641), twenty-four 2 µL injections; triplicate

Chain of UniProt P0DMV8 (P0DMV8 385-641): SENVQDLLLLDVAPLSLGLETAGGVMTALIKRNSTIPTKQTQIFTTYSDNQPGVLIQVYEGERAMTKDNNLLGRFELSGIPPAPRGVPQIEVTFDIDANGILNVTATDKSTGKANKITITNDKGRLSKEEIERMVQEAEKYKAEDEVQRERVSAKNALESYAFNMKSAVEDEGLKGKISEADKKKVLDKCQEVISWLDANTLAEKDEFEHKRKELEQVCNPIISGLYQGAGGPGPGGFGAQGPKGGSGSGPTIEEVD

| dH [kcal/mol] | Substance |
| --- | --- |
| -7.67 | Recombinant human CHIP S20E (phosphomimetic) (from UniProt Q9UNE7 1-303) (natural protein) |
| -6.31 | Recombinant human CHIP wild type (from UniProt Q9UNE7 1-303) (natural protein) |
